Data taken from article PMC11950852, “Diversity Scale of Library Matters: Impact of mRNA Library Diversity Scales on the Discovery of Macrocyclic Peptides Targeting a Protein by the RaPID System” (ACS Central Science, 2025).
Bridges are numbered along the chain shown (N, C = ends). Where no end group is shown, it is not given here. [ ]: non-standard residue; d: D form.

T1: ectodomain of MET fused to Fc (UniProt P08581 25-932)
T1 chain: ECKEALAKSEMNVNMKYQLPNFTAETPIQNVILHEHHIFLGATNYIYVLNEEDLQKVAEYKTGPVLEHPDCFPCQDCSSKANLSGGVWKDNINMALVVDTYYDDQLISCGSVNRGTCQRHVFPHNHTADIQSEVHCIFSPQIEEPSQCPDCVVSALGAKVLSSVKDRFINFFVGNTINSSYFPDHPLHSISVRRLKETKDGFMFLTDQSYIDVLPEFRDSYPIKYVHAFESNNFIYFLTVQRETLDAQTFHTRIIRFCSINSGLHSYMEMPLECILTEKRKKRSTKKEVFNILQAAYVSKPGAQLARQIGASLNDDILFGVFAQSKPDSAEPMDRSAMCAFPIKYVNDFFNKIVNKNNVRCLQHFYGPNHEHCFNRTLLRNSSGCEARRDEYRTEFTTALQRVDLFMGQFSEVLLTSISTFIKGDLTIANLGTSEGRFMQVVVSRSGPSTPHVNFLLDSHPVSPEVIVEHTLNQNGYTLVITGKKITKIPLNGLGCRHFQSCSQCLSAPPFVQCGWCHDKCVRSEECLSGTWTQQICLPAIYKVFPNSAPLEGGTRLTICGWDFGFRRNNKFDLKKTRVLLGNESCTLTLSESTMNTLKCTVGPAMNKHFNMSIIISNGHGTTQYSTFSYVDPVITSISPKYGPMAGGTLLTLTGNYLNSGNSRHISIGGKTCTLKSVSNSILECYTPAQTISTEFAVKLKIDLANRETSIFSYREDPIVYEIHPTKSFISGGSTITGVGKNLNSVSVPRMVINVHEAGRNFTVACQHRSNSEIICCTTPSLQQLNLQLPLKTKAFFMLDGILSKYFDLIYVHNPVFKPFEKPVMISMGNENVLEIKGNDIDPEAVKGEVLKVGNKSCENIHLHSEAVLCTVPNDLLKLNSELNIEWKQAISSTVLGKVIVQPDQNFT


Assays:
[1] = molecular target: T1, ectodomain of MET fused to Fc; experiment: SPR
[2] = molecular target: T2, ectodomain of MET fused to Fc (UniProt P08581 25-932); experiment: SPR; fitted by a 1:1 binding model; who was immobilised and the conditions are in the Supporting Information (not shown); settings: both partners purified
T2 construct: MET (hepatocyte growth factor receptor), a receptor tyrosine kinase; also called MET-Fc; Fc-tagged MET

[3] = molecular target: T1, ectodomain of MET fused to Fc; experiment: SPR

| Binder | koff [1] [s⁻¹] | koff [2] [s⁻¹] | Kd [3] [nM] | Kd [2] [nM] |
| --- | --- | --- | --- | --- |
| {CH2CO}-YYSWSGSVSESVKWNSCG-NH2 (thioether N-17; SMILES CC(C)[C@@H]1NC(=O)[C@H](CO)NC(=O)CNC(=O)[C@H](CO)NC(=O)[C@H](Cc2c[nH]c3ccccc23)NC(=O)[C@H](CO)NC(=O)[C@H](Cc2ccc(O)cc2)NC(=O)[C@H](Cc2ccc(O)cc2)NC(=O)CSC[C@@H](C(=O)NCC(N)=O)NC(=O)[C@H](CO)NC(=O)[C@H](CC(N)=O)NC(=O)[C@H](Cc2c[nH]c3ccccc23)NC(=O)[C@H](CCCCN)NC(=O)[C@H](C(C)C)NC(=O)[C@H](CO)NC(=O)[C@H](CCC(=O)O)NC(=O)[C@H](CO)NC1=O) [10–1] | 0.00878 | ~0.01 |  |  |
| {CH2CO}-YWVYGFGKLNNDWRAFCG (thioether N-17 (inferred)) [14–1] | 0.000739 |  | 2.87 |  |
| {CH2CO}-YISWNEFNSPNWRFITCG-NH2 (thioether N-17; SMILES CC[C@H](C)[C@@H]1NC(=O)[C@H](Cc2ccc(O)cc2)NC(=O)CSC[C@@H](C(=O)NCC(N)=O)NC(=O)[C@H]([C@@H](C)O)NC(=O)[C@H]([C@@H](C)CC)NC(=O)[C@H](Cc2ccccc2)NC(=O)[C@H](CCCNC(=N)N)NC(=O)[C@H](Cc2c[nH]c3ccccc23)NC(=O)[C@H](CC(N)=O)NC(=O)[C@@H]2CCCN2C(=O)[C@H](CO)NC(=O)[C@H](CC(N)=O)NC(=O)[C@H](Cc2ccccc2)NC(=O)[C@H](CCC(=O)O)NC(=O)[C@H](CC(N)=O)NC(=O)[C@H](Cc2c[nH]c3ccccc23)NC(=O)[C@H](CO)NC1=O, Benchmark macrocycle from an earlier RaPID selection; measured again here; also called 17-mer aML5) [aML5] | 0.00606 |  |  | 11.2 |
| {CH2CO}-YLVWHEYDSKKWYFSLCG-NH2 (thioether N-17; SMILES CC(C)C[C@@H]1NC(=O)[C@H](CO)NC(=O)[C@H](Cc2ccccc2)NC(=O)[C@H](Cc2ccc(O)cc2)NC(=O)[C@H](Cc2c[nH]c3ccccc23)NC(=O)[C@H](CCCCN)NC(=O)[C@H](CCCCN)NC(=O)[C@H](CO)NC(=O)[C@H](CC(=O)O)NC(=O)[C@H](Cc2ccc(O)cc2)NC(=O)[C@H](CCC(=O)O)NC(=O)[C@H](Cc2c[nH]cn2)NC(=O)[C@H](Cc2c[nH]c3ccccc23)NC(=O)[C@H](C(C)C)NC(=O)[C@H](CC(C)C)NC(=O)[C@H](Cc2ccc(O)cc2)NC(=O)CSC[C@@H](C(=O)NCC(N)=O)NC1=O) [12–5] | 0.002 |  | 15.4 |  |
| {CH2CO}-YLSWKYYDSSDWVILSCG-NH2 (thioether N-17; SMILES CC[C@H](C)[C@@H]1NC(=O)[C@H](C(C)C)NC(=O)[C@H](Cc2c[nH]c3ccccc23)NC(=O)[C@H](CC(=O)O)NC(=O)[C@H](CO)NC(=O)[C@H](CO)NC(=O)[C@H](CC(=O)O)NC(=O)[C@H](Cc2ccc(O)cc2)NC(=O)[C@H](Cc2ccc(O)cc2)NC(=O)[C@H](CCCCN)NC(=O)[C@H](Cc2c[nH]c3ccccc23)NC(=O)[C@H](CO)NC(=O)[C@H](CC(C)C)NC(=O)[C@H](Cc2ccc(O)cc2)NC(=O)CSC[C@@H](C(=O)NCC(N)=O)NC(=O)[C@H](CO)NC(=O)[C@H](CC(C)C)NC1=O) [14–5] | 0.00836 |  | 64.7 |  |
| {CH2CO}-YYSWSGKDVDSVIWNNCG-NH2 (thioether N-17; SMILES CC[C@H](C)[C@@H]1NC(=O)[C@H](C(C)C)NC(=O)[C@H](CO)NC(=O)[C@H](CC(=O)O)NC(=O)[C@H](C(C)C)NC(=O)[C@H](CC(=O)O)NC(=O)[C@H](CCCCN)NC(=O)CNC(=O)[C@H](CO)NC(=O)[C@H](Cc2c[nH]c3ccccc23)NC(=O)[C@H](CO)NC(=O)[C@H](Cc2ccc(O)cc2)NC(=O)[C@H](Cc2ccc(O)cc2)NC(=O)CSC[C@@H](C(=O)NCC(N)=O)NC(=O)[C@H](CC(N)=O)NC(=O)[C@H](CC(N)=O)NC(=O)[C@H](Cc2c[nH]c3ccccc23)NC1=O) [14–2] | 0.00182 |  | 3.93 |  |
| {CH2CO}-YYSWTGRDFDAVKWNKCG-NH2 (thioether N-17; SMILES CC(C)[C@@H]1NC(=O)[C@H](C)NC(=O)[C@H](CC(=O)O)NC(=O)[C@H](Cc2ccccc2)NC(=O)[C@H](CC(=O)O)NC(=O)[C@H](CCCNC(=N)N)NC(=O)CNC(=O)[C@H]([C@@H](C)O)NC(=O)[C@H](Cc2c[nH]c3ccccc23)NC(=O)[C@H](CO)NC(=O)[C@H](Cc2ccc(O)cc2)NC(=O)[C@H](Cc2ccc(O)cc2)NC(=O)CSC[C@@H](C(=O)NCC(N)=O)NC(=O)[C@H](CCCCN)NC(=O)[C@H](CC(N)=O)NC(=O)[C@H](Cc2c[nH]c3ccccc23)NC(=O)[C@H](CCCCN)NC1=O) [14–4] | 0.00198 |  | 2.49 |  |
| {CH2CO}-[dY]RQFNRRTHEVWNLDCG (thioether N-16 (inferred)) [aMD4] | 0.00676 |  |  | 3.7 |
| {CH2CO}-YLSWSEFDSKNWSLAYCG-NH2 (thioether N-17; SMILES CC(C)C[C@@H]1NC(=O)[C@H](CO)NC(=O)[C@H](Cc2c[nH]c3ccccc23)NC(=O)[C@H](CC(N)=O)NC(=O)[C@H](CCCCN)NC(=O)[C@H](CO)NC(=O)[C@H](CC(=O)O)NC(=O)[C@H](Cc2ccccc2)NC(=O)[C@H](CCC(=O)O)NC(=O)[C@H](CO)NC(=O)[C@H](Cc2c[nH]c3ccccc23)NC(=O)[C@H](CO)NC(=O)[C@H](CC(C)C)NC(=O)[C@H](Cc2ccc(O)cc2)NC(=O)CSC[C@@H](C(=O)NCC(N)=O)NC(=O)[C@H](Cc2ccc(O)cc2)NC(=O)[C@H](C)NC1=O) [14–3] | 0.00297 |  | 35 |  |
| {CH2CO}-YFYYNWTNVAKWAKTLCG (thioether N-17 (inferred)) [6–2] |  | 0.0074 | 102 |  |
| {CH2CO}-YIEWYVYDSKSWVYVRCG-NH2 (thioether N-17; SMILES CC[C@H](C)[C@@H]1NC(=O)[C@H](Cc2ccc(O)cc2)NC(=O)CSC[C@@H](C(=O)NCC(N)=O)NC(=O)[C@H](CCCNC(=N)N)NC(=O)[C@H](C(C)C)NC(=O)[C@H](Cc2ccc(O)cc2)NC(=O)[C@H](C(C)C)NC(=O)[C@H](Cc2c[nH]c3ccccc23)NC(=O)[C@H](CO)NC(=O)[C@H](CCCCN)NC(=O)[C@H](CO)NC(=O)[C@H](CC(=O)O)NC(=O)[C@H](Cc2ccc(O)cc2)NC(=O)[C@H](C(C)C)NC(=O)[C@H](Cc2ccc(O)cc2)NC(=O)[C@H](Cc2c[nH]c3ccccc23)NC(=O)[C@H](CCC(=O)O)NC1=O) [14–6] | 0.00564 |  | 31.5 |  |
| {CH2CO}-YISWFAYASKDWFVRPCG-NH2 (thioether N-17; SMILES CC[C@H](C)[C@@H]1NC(=O)[C@H](Cc2ccc(O)cc2)NC(=O)CSC[C@@H](C(=O)NCC(N)=O)NC(=O)[C@@H]2CCCN2C(=O)[C@H](CCCNC(=N)N)NC(=O)[C@H](C(C)C)NC(=O)[C@H](Cc2ccccc2)NC(=O)[C@H](Cc2c[nH]c3ccccc23)NC(=O)[C@H](CC(=O)O)NC(=O)[C@H](CCCCN)NC(=O)[C@H](CO)NC(=O)[C@H](C)NC(=O)[C@H](Cc2ccc(O)cc2)NC(=O)[C@H](C)NC(=O)[C@H](Cc2ccccc2)NC(=O)[C@H](Cc2c[nH]c3ccccc23)NC(=O)[C@H](CO)NC1=O) [12–1] |  | 0.00254 | 32 |  |
| {CH2CO}-YNCLWVECKIVLPNGRCG (disulfide 8-17; thioether N-3) [12–4] |  | 0.00721 | 15.8 |  |
